Test [1] relates to AMPK. Kind of test: AMPK Thr172 phosphorylation (immunoblot densitometry) in isolated heart papillary muscles. The format is cell-based, rat. The note with it: normoxic heart muscles. Here is the method: (§1) Briefly, rat heart anterior and posterior left ventricular papillary muscles (3-5 mg) were equilibrated in oxygenated Dulbecco's phosphate-buffered saline (PBS) containing 1 mM MgCl2 […], glucose, and 1% BSA. Unless otherwise noted, 100% oxygen flowed continuously through sealed muscle incubation containers while muscles were kept in an oscillating water bath at 37° C., and experiments began after a 15 minute equilibration period in these conditions. During incubations designed to examine the effects of hypoxia, muscles were transferred to incubation containers gassed with N2 for 30 minutes. In incubations with rMIF (0-800 ng/ml), anti-MIF blocking antibody (100 μg/ml), and/or non-immune rabbit IgG (100 μg/ml); Sigma, USA), these compounds were added for 30-120 minutes. At the end of experiments, muscles were freeze clamped and stored in liquid nitrogen until further analysis, unless otherwise specified.
(§2) Immunoblots were performed according to standard methods known in the art. See, for example, Li et al., Am. J. Physiol Endocrinol Metab 287, E384 (2004) and Baron et al., Circ Res (Jan. 13, 2005). Heart homogenate proteins were combined with Laemmli sample buffer prior to resolution by SDS-PAGE, transferred onto polyvinylidene difluoride membranes, immunoblotted, detected with enhanced chemiluminesence, and quantified by densitometry.
In general terms: In western blotting, separated proteins are transferred to a membrane and probed.

Test [2] deals with AMPK. Kind of test: Hypoxic AMPK phosphorylation in human dermal fibroblasts by MIF promoter genotype. The following applies: 10 ng/ml during 9 hours of hypoxia. The format is cell-based. Here is the method:
as §2
To isolate human fibroblasts, human foreskin samples were obtained from the Yale Human Cell Resource Center (Department of Dermatology) in accordance with the Yale Human Investigations Committee. Fibroblasts were cultured in DMEM supplemented with 10% fetal bovine serum (FBS), penicillin (100 IU/ml) and streptomycin (100 μg/ml) at 37° C. Cells were studied at 80% confluence, and on the day prior to experiments, culture media was changed to DMEM with 1% FBS. Early passage fibroblasts were either subjected to 9 hours of hypoxia by incubation in an air-tight chamber gassed with 95% nitrogen/5% CO2 or control incubation in room air.
To confirm that relative MIF deficiency was responsible for impaired hypoxic AMPK activation in the low-expressing 5/5 genotype fibroblasts, we investigated the effect of adding human rMIF (10 ng/ml) to the culture media during hypoxic incubation.

In test [3] the test system is GLUT4. Kind of test: Cell-surface GLUT4 content of papillary muscles by bio-LC-ATB-BGPA photolabel. The format is cell-based, rat. The note with it: 400 ng/ml for 60 minutes. The procedure: as §1, with “At the end of experiments, muscles were freeze clamped and stored in liquid nitrogen until further analysis, unless otherwise specified.” left out
Glucose uptake is primarily mediated by the glucose transporter, GLUT4, and AMPK-stimulation of glucose transport is due to the translocation of GLUT4 vesicles to the cell surface, where GLUT4 is physiologically active (Sun et al., Circulation 89, 793 (1994); Young et al., Circulation 95, 415 (1997)). Thus, we assessed the cell-surface GLUT4 content of heart muscles after incubation with rMIF, utilizing a cell-membrane impermeant biotinylated glucose transporter photolabel (bio-LC-ATB-BGPA). […]

In test [4] the test system is rat heart left ventricular papillary muscles. Kind of test: 2-deoxy-[1-3H]glucose uptake in isolated heart papillary muscles. The format is cell-based. The following applies: normoxic heart muscles, 0-800 ng/ml for 60 minutes. Here is the method:
as §1
To further support MIF's role in modulating the AMPK pathway, we added recombinant human MIF (rMIF) to intact normoxic heart muscles. Papillary muscles were isolated as above. […]

B1: rMIF: recombinant human MIF (macrophage migration inhibitory factor), the preferred MIF agonist (protein, UniProt P14174 2-115, looked up)
Macrophage migration …: PMFIVNTNVPRASVPDGFLSELTQQLAQATGKPPQYIAVHVVPDQLMAFGGSSEPCALCSLHSIGKIGGAQNRSYSKLLCGLLAERLRISPDRVYINYYDMNAANVGWNNSTFA
Consider B1, for which the “AMPK Thr172 phosphorylation” value in test [1] (0-400 ng/ml, 0-120 minutes) was “time- and dose-dependent increase”. Further, in test [1] (400 ng/ml incubated for 60 minutes), the “maximal AMPK activation (AMPK Thr172 phosphorylation)” value is reported as 1.5-2.0 fold increase. Besides, the “hypoxic AMPK signaling (AMPK phosphorylation)” value in test [2] (5/5 genotype fibroblasts) is “rescued”. Besides, the AMPK phosphorylation entry in test [2] (hypoxic non-5/5 genotype fibroblasts) is recorded as “no additional effect”. Besides, in test [3], the “cell-surface GLUT4” value is recorded as “increased”. The glucose uptake result in test [4] was “increase”.

The values above are taken from patent US10765739B2, “Use of MIF and MIF pathway agonists” (Yale University, priority 2006, dated 2020).
